Literature values, collected in article PMC2757091.

What was measured:
Noggin = Noggin (UniProt Q13253)
Cerberus = Cerberus (UniProt O95813)
Chordin = Chordin (UniProt Q9H2X0)
Chordin, sequence (Q9H2X0 27-955): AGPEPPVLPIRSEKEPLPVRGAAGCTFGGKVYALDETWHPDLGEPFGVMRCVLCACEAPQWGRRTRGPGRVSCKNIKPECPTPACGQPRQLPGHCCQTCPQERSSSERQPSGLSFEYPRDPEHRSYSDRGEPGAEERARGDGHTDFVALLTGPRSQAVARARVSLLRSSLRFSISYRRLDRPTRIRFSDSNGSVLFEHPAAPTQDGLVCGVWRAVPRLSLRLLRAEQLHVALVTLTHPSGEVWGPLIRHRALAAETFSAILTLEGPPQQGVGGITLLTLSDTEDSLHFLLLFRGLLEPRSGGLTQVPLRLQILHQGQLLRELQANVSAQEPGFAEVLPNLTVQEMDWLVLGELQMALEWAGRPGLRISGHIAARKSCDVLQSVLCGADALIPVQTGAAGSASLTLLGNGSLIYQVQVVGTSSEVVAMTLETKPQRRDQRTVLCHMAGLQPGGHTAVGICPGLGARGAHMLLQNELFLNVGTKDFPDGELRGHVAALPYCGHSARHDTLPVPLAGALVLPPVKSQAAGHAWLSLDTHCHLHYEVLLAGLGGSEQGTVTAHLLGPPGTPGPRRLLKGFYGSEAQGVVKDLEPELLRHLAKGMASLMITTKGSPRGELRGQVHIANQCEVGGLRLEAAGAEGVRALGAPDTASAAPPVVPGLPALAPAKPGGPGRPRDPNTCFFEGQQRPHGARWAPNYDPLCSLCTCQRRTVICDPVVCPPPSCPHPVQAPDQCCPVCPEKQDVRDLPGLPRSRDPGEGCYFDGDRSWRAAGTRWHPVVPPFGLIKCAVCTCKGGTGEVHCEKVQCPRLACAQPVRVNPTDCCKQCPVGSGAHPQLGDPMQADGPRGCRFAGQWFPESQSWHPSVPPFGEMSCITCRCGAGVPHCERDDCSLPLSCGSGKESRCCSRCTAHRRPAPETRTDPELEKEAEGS

BMP4, sequence (P12644 293-408): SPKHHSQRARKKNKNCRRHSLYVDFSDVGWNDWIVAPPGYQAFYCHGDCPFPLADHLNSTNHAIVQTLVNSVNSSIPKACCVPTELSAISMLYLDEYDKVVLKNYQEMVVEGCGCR
Noggin, sequence (Q13253 28-232): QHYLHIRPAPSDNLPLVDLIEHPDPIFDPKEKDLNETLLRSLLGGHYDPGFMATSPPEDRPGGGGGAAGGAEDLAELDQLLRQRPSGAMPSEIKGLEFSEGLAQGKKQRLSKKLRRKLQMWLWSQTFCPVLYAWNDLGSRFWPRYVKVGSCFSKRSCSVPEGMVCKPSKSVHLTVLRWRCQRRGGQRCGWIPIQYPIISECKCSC
Cerberus, sequence (O95813 18-267): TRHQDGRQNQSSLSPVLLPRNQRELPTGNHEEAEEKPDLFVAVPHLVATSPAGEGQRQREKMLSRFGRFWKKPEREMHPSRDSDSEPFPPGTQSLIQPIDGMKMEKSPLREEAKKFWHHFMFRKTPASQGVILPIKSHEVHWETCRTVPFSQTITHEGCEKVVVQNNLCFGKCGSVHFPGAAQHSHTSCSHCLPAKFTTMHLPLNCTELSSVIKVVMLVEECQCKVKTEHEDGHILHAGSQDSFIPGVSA

Kd (Noggin): 0.02 nM
Kd (Cerberus): 0.6 nM
Kd (Chordin): 0.2 nM
Substance: BMP4 (from UniProt P12644)
